Measured values published in publication PMC12599289, “Kinetic and homology model analysis of diaminopimelate decarboxylase from Cyanothece sp. ATCC 51142: unveiling a key enzyme in lysine biosynthesis” (Bioscience Reports, 2025).

Substrate: NC(CCCC(N)C(=O)O)C(=O)O
Assay: purified protein
Format: biochemical, Crocosphaera subtropica
Details: 0.1 mM PLP, 20 mM Tris-HCl pH 8.0, methods say room temperature, abstract says 30°C, DAP 0.5-15 mM

B1: CsDAPDC (Crocosphaera subtropica ATCC 51142) (protein)
chain: MIATPTKTPHTGQDYLKIKINATDSTKRSPNQSLLPLTANINAHDHLEIGGCDLQTLVEQFGSPLYILDEMTLRTACRQYRDNFQTYYKGESQVIYASKAWSCLAVVGVIARENLGFDVVSGGELYTTQKALTQLGYSCQEIAKKIYFHGNNKSEAELKEAIKVGCTIIVDNWLELQTLAQLGNDTPNLTIPILIRLTPGIECHTHEYIRTGHLDSKFGFDPNQLEAVFTYISQQTSLDCRGLHAHIGSQIFERQPHQDLAGVLVEWLKIGREYGLNLSELNIGGGLGICYTEEDDPPSIEEWVKAVSEAVMKACQRCEIDLPKLIAEPGRSLIGSACVTAYTVGSRKEIPELRTYIAVDGGMSDNPRPITYQSLYRVALANRMSAEISETVTIAGKHCESGDIVIKDAQLPQTHPGDILVIMGTGAYNYSMASNYNRLPRPAAVMVNQGEANLIVRRETYDDLIRQDCLPQRLLP
notes: tag removal not mentioned; dimer only from homology model
Km: 1200 ± 170 µM | kcat: 1.68 s⁻¹
